Test results as given in patent US9605283B2, “Microorganism modified for the production of 1,3-propanediol” (INSTITUT NATIONAL DES SCIENCES APPLIQUÉES, priority 2012, dated 2017).

Tests used:
[1] = Malate dehydrogenase activity (natural substrate); assay type: biochemical; settings: for Max. specific activity, malate: activity measured at 50 mM malate
[2] = DHB dehydrogenase activity of cytosolic enzymes (DHB-dependent reduction of NAD+); assay type: biochemical
Method: Activity of the cytosolic DHB dehydrogenases (Ec-Mdh, Bs-Mdh, Ll-LdhA) was assayed by following the DHB-dependent reduction of NAD^+.
The reaction mixture contained 60 mM Hepes (pH 8), 50 mM potassium chloride, 5 mM MgCl2, 10 mM NAD, (optionally, 5 mM fructose-1,6-bisphosphate (F16bP)) (all products from Sigma), and appropriate amounts of purified enzyme or cell extract. Reactions were started by adding 50 mM (L)-2,4-dihydroxybutyrate (Rhodia).
All enzymatic assays were carried out at 37° C. in 96-well flat bottomed microtiter plates in a final volume of 250 μL. The reactions were followed by the characteristic absorption of NADH at 340 nm (εNADH=6.22 mM^−1 cm^−1) or the absorbtion of DCIP at 655 nm (εDCIP=5.9 mM^−1 cm^−1) in a microplate reader (BioRad 680XR).

[3] = activity measured at 50 mM DHB, Table 4

Molecule	Max. specific activity, malate ([1]; Table 4) [µmol/mg/min]	Max. specific activity, DHB [2, 3] [µmol/mg/min]	further results
Bs-MdhR87C: B. subtilis malate dehydrogenase mutant R87C, SEQ ID No. 154 (protein, listed as Bacillus subtilis) MGNTRKKVSVIGAGFTGATTAFLIAQKELADVVLVDIPQLENPTKGKALDMLEASPVQGFDAKITGTSNYEDTAGSDIVVITAGIACKPGMSRDDLVSTNEKIMRSVTQEIVKYSPDSIIVVLTNPVDAMTYAVYKESGFPKERVIGQSGVLDTARFRTFVAEELNLSVKDVTGFVLGGHGDDMVPLVRYSYAGGIPLETLIPKERIDAIVERTRKGGGEIVNLLGNGSAYYAPAASLTEMVEAILKDQRRVLPTIAYLEGEYGYEGIYLGVPTIVGGNGLEQIIELELTDYERAQLNKSVESVKNVMKVLS	0.13	0.06	activity on malate ([1]; text of Example 2): 0.13 µmol/mg/min; maximum activity on DHB ([2]; text of Example 2): 0.06 µmol/mg/min
Ec-Mdh: (L)-malate dehydrogenase of Escherichia coli, wild-type, SEQ ID No. 124 (protein, listed as Escherichia coli) MKVAVLGAAGGIGQALALLLKTQLPSGSELSLYDIAPVTPGVAVDLSHIPTAVKIKGFSGEDATPALEGADVVLISAGVARKPGMDRSDLFNVNAGIVKNLVQQVAKTCPKACIGIITNPVNTTVAIAAEVLKKAGVYDKNKLFGVTTLDIIRSNTFVAELKGKQPGEVEVPVIGGHSGVTILPLLSQVPGVSFTEQEVADLTKRIQNAGTEVVEAKAGGGSATLSMGQAAARFGLSLVRALQGEQGVVECAYVEGDGQYARFFSQPLLLGKNGVEERKSIGTLSAFEQNALEGMLDTLKKDIALGEEFVNK			Max. specific activity, Natural substrate ([1]; natural substrate (L)-malate, Table 2): 52.5 µmol/mg/min; DHB dehydrogenase activity (in words) ([2]; cytosolic wild-type enzymes): no measurable DHB dehydrogenase activity; Max. specific activity, DHB ([2]; when not saturated, activity estimated at 50 mM substrate, Table 2): 0 µmol/mg/min
Ec-MdhR81A: E. coli malate dehydrogenase mutant R81A, SEQ ID No. 156 (protein, listed as Escherichia coli) MKVAVLGAAGGIGQALALLLKTQLPSGSELSLYDIAPVTPGVAVDLSHIPTAVKIKGFSGEDATPALEGADVVLISAGVAAKPGMDRSDLFNVNAGIVKNLVQQVAKTCPKACIGIITNPVNTTVAIAAEVLKKAGVYDKNKLFGVTTLDIIRSNTFVAELKGKQPGEVEVPVIGGHSGVTILPLLSQVPGVSFTEQEVADLTKRIQNAGTEVVEAKAGGGSATLSMGQAAARFGLSLVRALQGEQGVVECAYVEGDGQYARFFSQPLLLGKNGVEERKSIGTLSAFEQNALEGMLDTLKKDIALGEEFVNK	0.12	0.3	
Ec-MdhR81A M85Q I12V: E. coli malate dehydrogenase mutant R81A M85Q I12V, SEQ ID No. 164 (protein, listed as Escherichia coli) MKVAVLGAAGGVGQALALLLKTQLPSGSELSLYDIAPVTPGVAVDLSHIPTAVKIKGFSGEDATPALEGADVVLISAGVAAKPGQDRSDLFNVNAGIVKNLVQQVAKTCPKACIGIITNPVNTTVAIAAEVLKKAGVYDKNKLFGVTTLDIIRSNTFVAELKGKQPGEVEVPVIGGHSGVTILPLLSQVPGVSFTEQEVADLTKRIQNAGTEVVEAKAGGGSATLSMGQAAARFGLSLVRALQGEQGVVECAYVEGDGQYARFFSQPLLLGKNGVEERKSIGTLSAFEQNALEGMLDTLKKDIALGEEFVNK	0.98	7.1	
Ec-MdhR81A M85E: E. coli malate dehydrogenase mutant R81A M85E, SEQ ID No 160 (protein, listed as Escherichia coli) MKVAVLGAAGGIGQALALLLKTQLPSGSELSLYDIAPVTPGVAVDLSHIPTAVKIKGFSGEDATPALEGADVVLISAGVAAKPGEDRSDLFNVNAGIVKNLVQQVAKTCPKACIGIITNPVNTTVAIAAEVLKKAGVYDKNKLFGVTTLDIIRSNTFVAELKGKQPGEVEVPVIGGHSGVTILPLLSQVPGVSFTEQEVADLTKRIQNAGTEVVEAKAGGGSATLSMGQAAARFGLSLVRALQGEQGVVECAYVEGDGQYARFFSQPLLLGKNGVEERKSIGTLSAFEQNALEGMLDTLKKDIALGEEFVNK	0.65	2.38	
Ec-MdhR81A M85E I12V: E. coli malate dehydrogenase mutant R81A M85E I12V, SEQ ID No. 166 (protein, listed as Escherichia coli) MKVAVLGAAGGVGQALALLLKTQLPSGSELSLYDIAPVTPGVAVDLSHIPTAVKIKGFSGEDATPALEGADVVLISAGVAAKPGEDRSDLFNVNAGIVKNLVQQVAKTCPKACIGIITNPVNTTVAIAAEVLKKAGVYDKNKLFGVTTLDIIRSNTFVAELKGKQPGEVEVPVIGGHSGVTILPLLSQVPGVSFTEQEVADLTKRIQNAGTEVVEAKAGGGSATLSMGQAAARFGLSLVRALQGEQGVVECAYVEGDGQYARFFSQPLLLGKNGVEERKSIGTLSAFEQNALEGMLDTLKKDIALGEEFVNK	0.91	10.3	
Ec-MdhR81A D86S: E. coli malate dehydrogenase mutant R81A D86S, SEQ ID No. 170 (protein, listed as Escherichia coli) MKVAVLGAAGGIGQALALLLKTQLPSGSELSLYDIAPVTPGVAVDLSHIPTAVKIKGFSGEDATPALEGADVVLISAGVAAKPGMSRSDLFNVNAGIVKNLVQQVAKTCPKACIGIITNPVNTTVAIAAEVLKKAGVYDKNKLFGVTTLDIIRSNTFVAELKGKQPGEVEVPVIGGHSGVTILPLLSQVPGVSFTEQEVADLTKRIQNAGTEVVEAKAGGGSATLSMGQAAARFGLSLVRALQGEQGVVECAYVEGDGQYARFFSQPLLLGKNGVEERKSIGTLSAFEQNALEGMLDTLKKDIALGEEFVNK	0.42	0.79	
Ec-MdhR81A M85Q: E. coli malate dehydrogenase mutant R81A M85Q, SEQ ID No. 158 (protein, listed as Escherichia coli) MKVAVLGAAGGIGQALALLLKTQLPSGSELSLYDIAPVTPGVAVDLSHIPTAVKIKGFSGEDATPALEGADVVLISAGVAAKPGQDRSDLFNVNAGIVKNLVQQVAKTCPKACIGIITNPVNTTVAIAAEVLKKAGVYDKNKLFGVTTLDIIRSNTFVAELKGKQPGEVEVPVIGGHSGVTILPLLSQVPGVSFTEQEVADLTKRIQNAGTEVVEAKAGGGSATLSMGQAAARFGLSLVRALQGEQGVVECAYVEGDGQYARFFSQPLLLGKNGVEERKSIGTLSAFEQNALEGMLDTLKKDIALGEEFVNK	0.57	2.98	
Ec-MdhR81A D865 G179D: E. coli malate dehydrogenase mutant R81A D86S G179D (printed D865), SEQ ID No 172 (protein, listed as Escherichia coli) MKVAVLGAAGGIGQALALLLKTQLPSGSELSLYDIAPVTPGVAVDLSHIPTAVKIKGFSGEDATPALEGADVVLISAGVAAKPGMSRSDLFNVNAGIVKNLVQQVAKTCPKACIGIITNPVNTTVAIAAEVLKKAGVYDKNKLFGVTTLDIIRSNTFVAELKGKQPGEVEVPVIGGHSDVTILPLLSQVPGVSFTEQEVADLTKRIQNAGTEVVEAKAGGGSATLSMGQAAARFGLSLVRALQGEQGVVECAYVEGDGQYARFFSQPLLLGKNGVEERKSIGTLSAFEQNALEGMLDTLKKDIALGEEFVNK	0.64	2.51	Km ([1]; read-out: Km, malate, Table 4): 4 mM; Km ([2]; ns = not saturated at concentrations of up to 100 mM, Table 4): 25 mM
Ec-MdhR81A I12V: E. coli malate dehydrogenase mutant R81A I12V, SEQ ID No. 162 (protein, listed as Escherichia coli) MKVAVLGAAGGVGQALALLLKTQLPSGSELSLYDIAPVTPGVAVDLSHIPTAVKIKGFSGEDATPALEGADVVLISAGVAAKPGMDRSDLFNVNAGIVKNLVQQVAKTCPKACIGIITNPVNTTVAIAAEVLKKAGVYDKNKLFGVTTLDIIRSNTFVAELKGKQPGEVEVPVIGGHSGVTILPLLSQVPGVSFTEQEVADLTKRIQNAGTEVVEAKAGGGSATLSMGQAAARFGLSLVRALQGEQGVVECAYVEGDGQYARFFSQPLLLGKNGVEERKSIGTLSAFEQNALEGMLDTLKKDIALGEEFVNK	0.66	2.5	
Ec-MdhR81A G179D: E. coli malate dehydrogenase mutant R81A G179D, SEQ ID No. 168 (protein, listed as Escherichia coli) MKVAVLGAAGGIGQALALLLKTQLPSGSELSLYDIAPVTPGVAVDLSHIPTAVKIKGFSGEDATPALEGADVVLISAGVAAKPGMDRSDLFNVNAGIVKNLVQQVAKTCPKACIGIITNPVNTTVAIAAEVLKKAGVYDKNKLFGVTTLDIIRSNTFVAELKGKQPGEVEVPVIGGHSDVTILPLLSQVPGVSFTEQEVADLTKRIQNAGTEVVEAKAGGGSATLSMGQAAARFGLSLVRALQGEQGVVECAYVEGDGQYARFFSQPLLLGKNGVEERKSIGTLSAFEQNALEGMLDTLKKDIALGEEFVNK	0.52	2.1	
